What all share (experiment): FP
One test addresses T1, RAP1B•mGppNHp (human, UniProt P61224 1-184).
T1 chain: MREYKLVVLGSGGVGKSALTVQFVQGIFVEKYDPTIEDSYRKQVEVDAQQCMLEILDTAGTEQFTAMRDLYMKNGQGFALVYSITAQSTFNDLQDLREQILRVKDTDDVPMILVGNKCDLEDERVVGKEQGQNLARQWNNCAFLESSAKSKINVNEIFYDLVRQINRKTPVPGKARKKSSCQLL

The target of a further test is T2, RALA•mGppNHp (human, UniProt P11233 1-206).
T2 chain: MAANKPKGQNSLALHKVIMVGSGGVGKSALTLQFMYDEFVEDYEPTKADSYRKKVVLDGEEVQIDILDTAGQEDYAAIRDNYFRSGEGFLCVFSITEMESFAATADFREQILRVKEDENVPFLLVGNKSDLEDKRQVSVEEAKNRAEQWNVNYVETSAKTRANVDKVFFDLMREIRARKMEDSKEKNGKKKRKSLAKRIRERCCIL

Another test has as its target T3, RAP2A•mGppNHp (human, UniProt P10114 1-183).
T3 chain: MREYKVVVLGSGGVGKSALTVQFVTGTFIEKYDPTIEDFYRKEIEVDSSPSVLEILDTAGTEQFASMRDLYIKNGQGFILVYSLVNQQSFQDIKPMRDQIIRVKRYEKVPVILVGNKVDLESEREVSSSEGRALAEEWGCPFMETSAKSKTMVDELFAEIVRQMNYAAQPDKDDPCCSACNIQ

In another test the target is T4, RRAS1•mGppNHp (human, UniProt P10301 1-218).
T4 chain: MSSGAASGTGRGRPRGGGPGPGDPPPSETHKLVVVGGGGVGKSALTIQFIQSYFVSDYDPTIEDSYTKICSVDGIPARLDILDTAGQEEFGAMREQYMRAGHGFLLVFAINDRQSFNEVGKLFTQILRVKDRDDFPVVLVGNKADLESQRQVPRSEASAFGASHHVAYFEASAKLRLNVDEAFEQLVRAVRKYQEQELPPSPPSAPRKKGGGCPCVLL

The target in the next test is RHEB1•mGppNHp (human, UniProt Q15382 1-184).
Test [1] addresses T5, RIT1•mGppNHp (human, UniProt Q92963 1-219).
For another test, the target named is HRAS•mGppNHp (human, UniProt P01112 1-189).
Test [2] concerns the target T5, RIT1•mGppNHp. The source holds these as a separate data set.

A word on the Kd: it is the equilibrium constant for the complex coming apart. Lower therefore signals tighter binding.

Where two headings read alike, the source gives them in different places.

T5 sequence (Q92963 whole entry): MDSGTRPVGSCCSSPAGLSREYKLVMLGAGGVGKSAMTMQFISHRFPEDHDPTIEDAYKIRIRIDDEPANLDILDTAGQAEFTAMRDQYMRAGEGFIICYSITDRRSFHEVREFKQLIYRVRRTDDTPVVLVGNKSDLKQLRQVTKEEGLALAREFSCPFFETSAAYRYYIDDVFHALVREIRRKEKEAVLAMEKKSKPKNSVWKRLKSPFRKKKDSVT
RHEB1•mGppNHp, sequence (Q15382 whole entry): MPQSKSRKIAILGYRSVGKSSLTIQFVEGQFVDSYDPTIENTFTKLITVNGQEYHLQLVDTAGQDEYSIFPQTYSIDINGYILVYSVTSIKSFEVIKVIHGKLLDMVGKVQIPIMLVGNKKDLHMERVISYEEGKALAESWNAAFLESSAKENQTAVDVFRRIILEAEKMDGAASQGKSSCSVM

B1: RASSF1 RA domain, MBP fusion (domain or fragment)
chain: RGTSVRRRTSFYLPKDAVKHLHVLSRTRAREVIEALLRKFLVVDDPRKFALFERAERHGQVYLRKLLDDEQPLRLRLLAGPSDKALSFVLKENDS
With B1, the Kd turned out to be 26 µM in the test with RAP1B•mGppNHp; 18 µM in the test with RALA•mGppNHp; 22 µM in the test with RAP2A•mGppNHp; 33 µM in the test with RRAS1•mGppNHp; 37 µM in the test with RHEB1•mGppNHp; 136 µM with RIT1•mGppNHp [1].

B2: RASSF4-to-5 variant (RASSF4 RA domain with RASSF5 hotspot residues), MBP fusion (domain or fragment)
chain: YNHKTSVFTPADGIKTLVRVNSTMTTLQVLTLLLNKFRVEDGPSEFALYIVHESGERTKLKDCEYPLISRILHGPCEKIARIFLMEADL
Regarding B2, the Kd in the test with HRAS•mGppNHp is 10 µM; with RIT1•mGppNHp [2], 170 µM.
